Reference: patent US20250325651A1

Assays:
Assay in all cases: sandwich ELISA (coated antibody, conditioned medium, anti-His detection), OD450 grade
[1] = biological target: hMPV005 hMPV F-CompA fusion protein (human metapneumovirus (strain A))
[2] = biological target: hMPV008 hMPV F-CompA fusion protein (human metapneumovirus (strain B))
[3] = biological target: hMPV021 hMPV F-CompA fusion protein (human metapneumovirus (strain B))
[4] = biological target: hMPV024 hMPV F-CompA fusion protein (human metapneumovirus (strain A))
[5] = biological target: hMPV026 hMPV F-CompA fusion protein (not cleaved by furin) (human metapneumovirus (strain A))
[6] = biological target: hMPV027 hMPV F-CompA fusion protein (not cleaved by furin) (human metapneumovirus (strain A))
[7] = biological target: hMPV027C, furin-cleaved form of hMPV027 hMPV F-CompA fusion protein (human metapneumovirus (strain A))
[8] = biological target: hMPV033 hMPV F-CompA fusion protein (human metapneumovirus (strain A))

Measured: OD450

MPE8 (antibody)
1 to 2 od: all assays above
